These results are taken from US20250115641A1 (H LEE MOFFITT CANCER CENTER AND RESEARCH INSTITUTE, published 2025).

The target in assay [1] is T1, human NLRP3^PYD (residues 3-110, C-terminal 6 x histidine) (human, UniProt Q96P20 3-110).
T1 construct: range 3-110; also called His6-NLRP3^PYD
Nature of the assay: fluorescence polarization binding assay, FITC-labelled peptide. (Polarisation of emitted light reports the rotation of a fluorescent probe.)

Assay [2] has as its target T2, human N-terminally GST tagged ASC^PYD (human, UniProt Q9ULZ3 1-106).
T2 construct: range 1-106; Expressed in E. coli from pGEX-4T1; also called GST-ASC^PYD; not shown: N-terminal GST (glutathione S-transferase) tag of the pGEX-4T1 vector
The description is as above.

Bridge positions count the residues as written; N and C are the ends. Square brackets hold non-standard residues; d marks the D form. Primed or numbered codes have the meaning given here. S5 = C=CCCC[C@](C)(N)C(=O)O; Nle = CCCC[C@H](N)C(=O)O; FITC′ = fluorescein; βAla = NCCC(=O)O

T1 sequence (Q96P20 other isoform, or with tags, fused parts or gaps limits assumed): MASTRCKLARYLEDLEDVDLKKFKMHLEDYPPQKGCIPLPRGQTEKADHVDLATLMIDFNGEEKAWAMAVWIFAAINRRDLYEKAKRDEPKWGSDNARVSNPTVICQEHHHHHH
T2 sequence (Q9ULZ3 1-106): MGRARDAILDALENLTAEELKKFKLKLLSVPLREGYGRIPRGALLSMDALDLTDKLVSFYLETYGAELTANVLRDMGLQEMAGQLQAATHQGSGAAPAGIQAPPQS

B1: fSAH-POP1-5 (peptide)
peptide: AQXLKKXKXKLGTA
modifications: N-terminal fluorescein (FITC) on β-alanine; S5 = (S)-2-(4-pentenyl)alanine residues covalently linked (hydrocarbon staple); made on Rink amide resin
notes: also called peptide 56
Consider B1, for which, in assay [1], the “fold change of KD against fSAH-POP1-4 (higher)” value turned out to be 1.5 fold.

B2: fSAH-POP1-6 (peptide)
peptide: XQXLKKXKXKLWTA
modifications: N-terminal fluorescein (FITC) on β-alanine; S5 = (S)-2-(4-pentenyl)alanine residues covalently linked (hydrocarbon staple); made on Rink amide resin
notes: also called peptide 57
Turning to B2, the “fold change of KD against fSAH-POP1-5 (lower)” value in assay [1] was 2 fold.
Take {FITC′}-[βAla]Q[S5]LRK[S5]QWKLWTA-NH2 (staple 3-7, also called peptide 63) [fSAH-POP1-12]: in assay [1], the “fold increase of binding affinity against fSAH-POP1-10” value is 10 fold.
As to {FITC′}-[βAla]Q[S5]LRR[S5]QWKLWTS-NH2 (staple 3-7, also called peptide 67) [fSAH-POP1-16], the binding result in assay [2] was “binds”.
Turning to {FITC′}-[βAla]EELKKFK[Nle]KLGTV-NH2 (also called peptide 55) [fPOP1-H2], in assay [1], the binding result is “binds”.

B3: fSAH-POP1-4 (peptide)
peptide: AEXLKKXKXKLGTV
modifications: N-terminal fluorescein (FITC) on β-alanine; S5 = (S)-2-(4-pentenyl)alanine residues covalently linked (hydrocarbon staple); made on Rink amide resin
notes: FITC-labelled stapled peptide; also called peptide 54
On to B3, for which, in assay [1], the binding result is listed as “binds”.
